The values that follow come from paper PMC8391104, “Molecular mechanism of Mad1 kinetochore targeting by phosphorylated Bub1” (EMBO Reports, 2021).

One experiment has as its target Mad1 CTD, 597-718 (UniProt Q9Y6D9). Put plainly: 1H,15N HSQC titration of 15N-Mad1CTD. The settings on record: reference: non-phosphorylated peptide; sites S459,T461.
For experiment [1], the target named is Mad1 C-terminal domain (Mad1^CTD) homodimer, residues 597-718 (human) (UniProt Q9Y6D9). Put plainly: ITC; Bub1^CD1 peptide (0.3-1.5 mM) titrated into Mad1 (30-100 µM) in the cell; 20°C; 20 mM HEPES pH 7.5, 100 mM NaCl, 1 mM TCEP; single-site model; stoichiometry counted on dimeric Mad1^CTD. In general terms: ITC needs no label: the signal is the heat of the interaction.
Sequence of Mad1 C-terminal domain (Mad1^CTD) homodimer, residues 597-718 (human) (Q9Y6D9 597-718): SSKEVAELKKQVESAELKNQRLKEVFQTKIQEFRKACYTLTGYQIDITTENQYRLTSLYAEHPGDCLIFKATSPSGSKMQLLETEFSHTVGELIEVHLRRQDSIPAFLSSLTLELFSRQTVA

The target is the same in experiment [2]. Put plainly: crystal structure; co-crystallisation of Mad1^CTD (0.35 mM) with Bub1^CD1 peptide at 2.5 mM in 5% DMSO (or 5 mM in 10% DMSO); 10% isopropanol, 0.1 M Na HEPES pH 7.5, 20% PEG 4000; 21°C.
The target is the same in experiment [3]. Description: NMR titration; 1H,15N 2D HSQC of 15N-labelled Mad1^CTD with unlabelled peptide added (dimer to peptide 1:0.5 to 1:4); 50 mM HEPES pH 7.0, 100 mM NaCl, 2 mM TCEP, 0.02% NaN3, 298 K.
Experiment [4] shares this target. Put plainly: NMR titration; 31P 1D spectra of phosphorylated Bub1^CD1 peptide with Mad1^CTD dimer at 1:1 and 1:2 dimer to peptide, around 0.25 to 0.5 mM of each; 50 mM HEPES pH 7.0, 100 mM NaCl, 2 mM TCEP, 0.02% NaN3, 298 K.

With “Bub1 CD1, 455-479 (from UniProt O43683) phosphorylated peptide”, the “binding against the reference” value with Mad1 CTD, 597-718 is recorded as “gained”.
For “doubly phosphorylated Bub1^CD1 peptide (pSer459-pThr461)”, in experiment [1], the Kd (commonly the equilibrium constant for the complex coming apart) came out at 2700 nM and the stoichiometry N (peptide per Mad1 dimer) came out at 1. Also, the stoichiometry N (peptides per Mad1^CTD homodimer) in experiment [2] is 2. The substance further showed a stoichiometry N (peptide per Mad1^CTD dimer) in experiment [3] of 1. In experiment [4], this substance returned a stoichiometry N (peptide per Mad1^CTD dimer) of 1.
Turning to “singly phosphorylated Bub1^CD1 peptide (pThr461)”, the Kd in experiment [1] worked out at 3300 nM.
